The text below walks through data of publication PMC12461897 (mAbs, 2025).

This assay concerns the target C18-V peptide presented by HLA-A*02:01 on peptide-pulsed T2 cells (Homo sapiens HLA-A*02:01 and B2M (T2 …)). The experiment in a line: flow cytometry on cells. (In flow cytometry, cells or beads pass a laser one at a time.)

B1: MUR35 Fab (anti-C18-MHC TCR-mimic antibody clone MUR35) (Fab, V domains shown)
VH: EVQLQQSGPELVKPGASVKISCKASGYTFTDHFMNWVRQSHGKSLEWIGDINPNNGGTSYNQKFKGKATLTVDKSSSTAFMEVRSLTSDDSAVYYCARRGYYGSFDYWGQGTTLTVSS
VL: EIVMTQSPATLSLSPGERATLSCRASQGVSSSYFSWYQQTPGQAPRLLISGASTRATGIPARFSGSGSGTDFTLTISSLQPEDFAVYYCQQDYNLPYTFGQGTKLEIK
As to B1, the binding result is recorded as “binds”.

B2: MUR14 Fab (anti-C18-MHC antibody clone MUR14) (Fab, V domains shown)
VH: EVQLQQSGPELVKPGASVKISCKASGYTFTDYFMNWVKQSHGKSLEWIGDINPNNGGTSYNQKFKGKATLTVDKSSSTAYMELRSLTSEDSAVYYCARGLYDGYYVGFAYWGQGTLVTVSA
VL: EIVMTQSPATLSLSPGERATLSCRASQSVSSSYLSWYQQKPGQAPRLLIYGASTRATGLPARFSGSGSGTDFTLTISSLQPEDFAVYYCHQDYNLPYTFGQGTKLEIK
As for B2, the binding result is given as “binds”.
